According to the supplement of paper PMC11136658:

Tested on: peptide library, one residue held at a place counted from the Y acceptor
Test: relative phosphorylation of the sub-library (ratio to the mean residue at this position); higher = residue favoured
In short: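 Peptide library mixtures, biotinylated and centred on Tyr, each fixed one residue at one position from −5 to +5. Purified recombinant kinases were incubated with them for 90 min in 384-well plates alongside 50 μM ATP and γ-32P-ATP, and the captured, rinsed peptides on streptavidin membranes were measured by phosphorimaging and ImageQuant. Normalization divided each position's intensities by the sum of its 18 randomized residues (16 for the Ser/Thr-free library) and multiplied by that number, so that values give phosphorylation relative to the mean randomized residue.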

Sequence of IGF1R, construct: aa960-end, human (P08069 960-1367, looked up): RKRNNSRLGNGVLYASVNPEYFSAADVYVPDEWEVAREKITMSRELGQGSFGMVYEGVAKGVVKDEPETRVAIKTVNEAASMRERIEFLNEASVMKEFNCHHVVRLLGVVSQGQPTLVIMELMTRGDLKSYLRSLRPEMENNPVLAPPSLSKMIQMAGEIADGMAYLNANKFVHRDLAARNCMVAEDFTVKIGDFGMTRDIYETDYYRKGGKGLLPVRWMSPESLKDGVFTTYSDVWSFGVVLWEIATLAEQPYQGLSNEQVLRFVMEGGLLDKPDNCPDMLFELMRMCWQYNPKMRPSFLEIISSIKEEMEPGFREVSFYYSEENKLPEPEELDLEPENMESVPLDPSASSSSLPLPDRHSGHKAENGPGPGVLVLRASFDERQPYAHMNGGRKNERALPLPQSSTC

IGF1R, construct: aa960-end, human (from UniProt P08069)
relative phosphorylation
Settings	at +1	at +2	at +3	at +4	at +5	at -1	at -2	at -3	at -4	at -5
A fixed	1.7	0.629	0.386	0.818	0.794	1.07	1.11	0.892	1.01	0.847
D fixed	0.473	0.626	0.286	1.12	0.708	3.28	1.46	1.52	1.41	1.33
E fixed	0.838	1.42	0.255	1.68	0.671	1.61	1.71	1.77	1.86	1.05
F fixed	1.68	1.48	2	1.45	2.54	0.717	0.697	1.1	1.05	1.01
G fixed	0.585	0.273	0.367	0.844	0.83	0.547	1.18	0.991	1.03	1.06
H fixed	1.42	0.838	1.57	1.19	1.03	0.864	0.937	1.05	0.915	0.963
I fixed	1.28	1.15	1.94	0.843	0.91	1.2	0.736	0.654	0.819	0.997
K fixed	0.216	0.408	0.307	0.679	0.648	0.21	0.8	0.711	0.863	0.983
L fixed	1.08	1.59	1.35	0.694	1.02	0.964	0.839	0.798	0.886	0.916
M fixed	2.42	1.67	1.43	1.01	0.951	0.744	0.651	0.853	0.875	0.954
N fixed	0.319	0.74	0.288	0.787	0.764	1.83	1.34	1.4	0.971	1.12
P fixed	0.311	0.589	0.291	0.796	1.62	1.11	1.1	0.914	0.98	1.06
Q fixed	0.646	0.733	0.353	1.12	0.674	0.663	1.16	0.922	1.14	1.09
R fixed	0.178	0.588	0.433	0.799	0.914	0.239	0.893	0.899	0.977	1.12
S fixed	0.879	0.659	0.423	0.883	0.841	0.75	1.16	1.01	0.82	0.858
T fixed	0.755	0.661	0.525	0.86	0.704	0.778	0.86	0.973	0.645	0.864
V fixed	1.51	1.13	1.21	0.873	0.695	0.966	0.739	0.652	0.787	0.788
W fixed	1.71	2.83	4.6	1.55	1.68	0.451	0.63	0.901	0.967	0.983
pThr fixed	1.78	0.865	0.247	0.783	0.704	2.1	1.17	1.37	1.18	1.1
pTyr fixed	1.8	2.89	0.461	1.93	0.573	6.45	2.12	1.56	1.65	1.48
